Source: US20230374087A1, “METHOD TO IMPROVE PROTEIN QUALITY CONTROL” (The Johns Hopkins University, priority 2020, published 2023)

Key:
[1] = system: CHIP pS20; test: Immunoblot for phospho-S20 CHIP in myocytes; type: cell-based, rat; conditions: cardiomyocytes; cGMP or SIL; DT3 1 μM
Experimental: Tissue and cultured cardiomyocytes were lysed in 1× lysis buffer (Cell Signaling Technology), protein concentration was measured by bicinchoninic acid assay (Pierce), and extracts were subjected to SDS-PAGE using Novex Tris-Glycine Gels (4-20% gradient gel, Life Technologies) or Mini-protean TGX Gels (4-20% gradient gel, Bio-Rad), transferred to nitrocellulose membranes, and probed with various primary antibodies (CHIP (#2080S), Hsc70 (#8444S), p-CHIP S20 (Custom antibody, AbMart Inc., Shanghai, China; Project: 25011-1), Myc (#2276S), GAPDH (#2118S), and α-tubulin (#3878S) (Cell Signaling) and ubiquitin antibody (#SAB4503053) from Sigma), and fluorescence-labeled secondary antibodies (Licor, #926-32211, 926-32210, 926-68023, or 926-68022). Gels were imaged (Odyssey, Licor) and band intensity quantified (Odyssey Software 3.1).
Human CHIP peptide fragments containing amino acid residues 13-30 were incubated with cGMP/PKG and assayed by MS. […] Phosphorylation was also observed at neighboring S24 and S26, but only when a S20A CHIP mutant was used (FIG. 2D). This indicates the primary target for PKG on CHIP is at S20. A monoclonal phospho-antibody generated against the S20 site in CHIP was tested in vitro with recombinant PKG1α and CHIP, verifying a consistent phospho-S20-CHIP signal. Use of a CHIP-S20A mutant CHIP confirmed specificity (FIG. 2E).

[2] = system: TTR-V122I; test: TTR abundance in hiPSC-CMs by western blot; type: cell-based, human; conditions: cGMP 100 mM, TTR-V122I 5 μM, 14 days
Experimental: Human induced pluripotent stem cell derived cardiomyocytes (hiPSC-CMs) were infected with Ad-Chip WT, SE, or SA (10 MOI), in the presence or absence of protein kinase G (PKG) stimulation via cGMP ([…]) and exposed to media containing TTR-V122I (5 μM) or control for 14 days. Cells were lysed and TTR abundance was determined by western blotting for TTR with a total protein stain used to show equal loading.
Human induced pluripotent stem cell derived cardiomyocytes (hiPSC-CMs) were infected with Ad-Chip WT, SE, or SA (10 MOI), in the presence or absence of Lamp2A knockdown via siRNA (siLamp2A, 100 μM) and exposed to media containing TTR-V122I (5 μM) or control for 14 days. Cells were lysed and TTR abundance was determined by western blotting for TTR with a total protein stain used to show equal loading. Knocking down Lamp2A removes the method of protein degradation known as chaperone mediated autophagy (CMA).

[3] = system: neonatal rat cardiomyocytes (NRCMs)
Experimental: After overnight culture, subsets of NRCMs were infected with adenovirus (AdV) containing a FLAG-tagged PDE5, FLAG control, Myc-tagged CHIP WT or K31A (provided by Dr. Cam Patterson), S20E or S20A (Welgen Inc., Worcester, MA). Forty-eight hours after infection, cells were exposed to either simulated ischemia (SI) or normal conditions. SI involved incubating cells in DMEM containing deoxyglucose (20 mM), NaCl (125 mM), KCl (8 mM), KH2PO4 (1.2 mM), MgSO4 (1.25 mM), CaCl2) (1.2 mM), NaHCO3(6.25 mM), sodium lactate (5 mM), and HEPES (20 mM) with a pH of 6.6. Cells were then placed in an incubator chamber (Billups-Rothenberg) with 95% nitrogen, 4% carbon dioxide, and 1% oxygen. Normoxic controls were incubated in DMEM supplemented with 10% FBS in air composed of 95% carbon dioxide and 5% oxygen. RNA or protein was harvested after 48 hours of SI. Cells were also treated with sildenafil (1 μM) or vehicle, or small interference RNA (siRNA, 100 pM) specific for rat Stub1 (Qiagen, Cat. #: SI01532251) or scrambled control provided 24 hours after plating and transfected with Xfect (Takara) per manufacturer protocol.
Lactate dehydrogenase (LDH) leakage and (3-[4,5-dimethylthiazol-2-yl]-2,5-diphenyltetrazolium bromide) (MTT) were assessed in cultured cardiomyocytes and media after SI from the same culture dish. LDH was assayed by commercial assay (Roche) following manufacturer's protocol, read in 96 well microplates on a Spectramax M5 (Molecular Devices) at 490 nm absorbance. For MTT, cells were washed in phosphate-buffered saline, MTT (Sigma-Aldrich) working solution added to the culture dish, incubated at 37° C., solubilized with acidic isopropanol, transferred to a 96 well plate, and read at 570 nm with background subtraction at 650 nm on a Spectramax M5.

[4] = target: T1, Hsp40-stimulated ATPase activity of Hsc70 (Homo sapiens, UniProt P11142); test: Chaperone refolding ATPase activity assay; type: biochemical; conditions: CHIP 0.5-6 μM, Hsc70 0.5 μM, Hsp40 0.25 μM
T1 construct: His-tag (N); made in house; host or cells: E. coli BL21(DE3)
Experimental: Human HSP40 (DnaJB1), human CHIP and CHIP point mutants in pET30a with a C-terminal His-tag and hHsc70 (HSPA8) wild type with an N-terminal His-tag in pCOLA-Duet1 were expressed in BL21(DE3) and purified on Ni-NTA (Qiagen). Hsc70 and CHIP proteins were induced and expressed for 22 hours at 18° C. Hsp40 protein was induced and expressed for 5 hours at 25° C. Required stock solutions of proteins were prepared by diluting high concentrated stocks in protein storage buffer into protein storage buffer, 20 mM HEPES (pH7.4), 150 mM NaCl. Hsc70 and Hsp40 were used at a concentration of 0.5 μM and 0.25 μM, respectively, with a gradient of CHIP protein concentrations (0.5-6 μM). Hsp40-stimulated ATPase activity of Hsc70 was measured using fluorescent polarization with the […]® ADP2 FP Assay (BellBrook Labs, 3010-1K) on a Clariostar plate reader (BMG) in 384 well black, non-binding plates (Greiner, 784900). Optimized instrument settings were used: Excitation wavelength. 590 nm; Emission wavelength: 675 nm; Required value: 5%; Target mP: 20; Gain A: 1824; Gain B: 1854; Focal Height: 12.4 mm. Values of μM ADP formed in the reactions were interpolated from an ATP/ADP standard curve run in parallel.

T1 sequence (P11142 whole entry): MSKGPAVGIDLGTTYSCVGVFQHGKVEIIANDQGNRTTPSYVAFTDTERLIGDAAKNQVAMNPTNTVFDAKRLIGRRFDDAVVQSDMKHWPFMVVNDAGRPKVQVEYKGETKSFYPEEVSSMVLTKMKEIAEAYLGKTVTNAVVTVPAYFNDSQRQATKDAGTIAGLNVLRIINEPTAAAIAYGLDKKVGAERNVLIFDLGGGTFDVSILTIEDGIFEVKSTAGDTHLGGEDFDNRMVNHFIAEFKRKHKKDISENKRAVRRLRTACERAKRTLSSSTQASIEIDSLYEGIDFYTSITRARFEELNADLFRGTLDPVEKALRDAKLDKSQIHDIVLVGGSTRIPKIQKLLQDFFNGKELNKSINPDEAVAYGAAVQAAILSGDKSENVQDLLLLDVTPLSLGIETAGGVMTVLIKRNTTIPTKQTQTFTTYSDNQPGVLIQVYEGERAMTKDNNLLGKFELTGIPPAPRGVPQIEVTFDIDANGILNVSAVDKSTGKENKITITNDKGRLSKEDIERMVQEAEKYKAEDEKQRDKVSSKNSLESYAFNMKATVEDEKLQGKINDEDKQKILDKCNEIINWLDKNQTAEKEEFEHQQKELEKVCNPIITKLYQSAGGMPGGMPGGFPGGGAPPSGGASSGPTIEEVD

Row | Molecule | SI-induced cytotoxicity (LDH/MTT ratio) [3] | further results
1 | Nc1nc2c(ncn2[C@@H]2O[C@@H]3COP(=O)(O)O[C@H]3[C@H]2O)c(=O)[nH]1 [cGMP, cyclic guanosine monophosphate, reference compound] |  | CHIP pS20 level [1]: CHIP pS20 increased; TTR accumulation with PKG stimulation [2]: reduce TTR accumulation in Chip WT cells but not in Chip SA cells
2 | S24E: S24E mutant CHIP overexpressed in neonatal myocytes (protein, UniProt Q9WUD1 1-304, looked up, variant S24E) E3 ubiquitin-protein ligase …: MKGKEEKEGGARLGTGGGGSPDKEPSAQELKEQGNRLFVGRKYPEAAACYGRAITRNPLVAVYYTNRALCYLKMQQPEQALADCRRALELDGQSVKAHFFLGQCQLEMESYDEAIANLQRAYSLAKEQRLNFGDDIPSALRIAKKKRWNSIEERRIHQESELHSYLTRLIAAERERELEECQRNHEGHEDDGHIRAQQACIEAKHDKYMADMDELFSQVDEKRKKRDIPDYLCGKISFELMREPCITPSGITYDRKDIEEHLQRVGHFDPVTRSPLTQEQLIPNLAMKEVIDAFISENGWVEDY | no significant impact on the cytotoxic response to SI or SI+SIL | 
3 | S20E/S24E: S20E/S24E combination mutant CHIP (protein, UniProt Q9WUD1 1-304, looked up, variant S20E S24E) E3 ubiquitin-protein ligase …: MKGKEEKEGGARLGTGGGGEPDKEPSAQELKEQGNRLFVGRKYPEAAACYGRAITRNPLVAVYYTNRALCYLKMQQPEQALADCRRALELDGQSVKAHFFLGQCQLEMESYDEAIANLQRAYSLAKEQRLNFGDDIPSALRIAKKKRWNSIEERRIHQESELHSYLTRLIAAERERELEECQRNHEGHEDDGHIRAQQACIEAKHDKYMADMDELFSQVDEKRKKRDIPDYLCGKISFELMREPCITPSGITYDRKDIEEHLQRVGHFDPVTRSPLTQEQLIPNLAMKEVIDAFISENGWVEDY | very similar to those with S20 mutations alone | 
4 | S20A/S24A: S20A/S24A combination mutant CHIP (protein, UniProt Q9WUD1 1-304, looked up, variant S20A S24A) E3 ubiquitin-protein ligase …: MKGKEEKEGGARLGTGGGGAPDKAPSAQELKEQGNRLFVGRKYPEAAACYGRAITRNPLVAVYYTNRALCYLKMQQPEQALADCRRALELDGQSVKAHFFLGQCQLEMESYDEAIANLQRAYSLAKEQRLNFGDDIPSALRIAKKKRWNSIEERRIHQESELHSYLTRLIAAERERELEECQRNHEGHEDDGHIRAQQACIEAKHDKYMADMDELFSQVDEKRKKRDIPDYLCGKISFELMREPCITPSGITYDRKDIEEHLQRVGHFDPVTRSPLTQEQLIPNLAMKEVIDAFISENGWVEDY | very similar to those with S20 mutations alone | 
5 | S24A: S24A mutant CHIP overexpressed in neonatal myocytes (protein, UniProt Q9WUD1 1-304, looked up, variant S24A) E3 ubiquitin-protein ligase …: MKGKEEKEGGARLGTGGGGSPDKAPSAQELKEQGNRLFVGRKYPEAAACYGRAITRNPLVAVYYTNRALCYLKMQQPEQALADCRRALELDGQSVKAHFFLGQCQLEMESYDEAIANLQRAYSLAKEQRLNFGDDIPSALRIAKKKRWNSIEERRIHQESELHSYLTRLIAAERERELEECQRNHEGHEDDGHIRAQQACIEAKHDKYMADMDELFSQVDEKRKKRDIPDYLCGKISFELMREPCITPSGITYDRKDIEEHLQRVGHFDPVTRSPLTQEQLIPNLAMKEVIDAFISENGWVEDY | no significant impact on the cytotoxic response to SI or SI+SIL | 
6 | CHIP-K31A: CHIP Lys 31 (K30 in humans) to Ala mutant that abolishes CHIP chaperone interactions (protein, left off: small tags and cut ends) MKGKEEKEGGARLGAGGGSPEKSPSAQELAEQGNRLFVGRKYPEAAACYGRVITRNPLVAVYYTNRALCYLKMQQHEQALADCRRALELDGQSVKAHFFLGQCQLEMESYDEAIANLQRAYSLAKEQRLNFGDDIPSALRIAKKKRWNSIEERRIHQESELHSYLSRLIAAERERELEECQRNHEGDEDDSHVRAQQACIEAKHDKYMADMDELFSQVDEKRKKRDIPDYLCGKISFELMREPCITPSGITYDRKDIEEHLQRVGHFDPVTRSPLTQEQLIPNLAMKEVIDAFISENGWVEDY |  | inhibition of Hsp70 ATPase activity [4]: an effect that was lost
